Experiment: soluble on expression in E. coli; label from the status in PepcDB or PDB records

Row | Sequence | soluble on expression in E. coli
1 | MPYRKYREKKYETKYREAFKLFQEKIGITFTDEKLLIQAFTHSSYVNEHRKKPHEDNERLEFLGDAVLELTVSQYLFQKYPTMSEGELTKLRAAIVCEPSLVRFANELSFGSLVLLGKGEEMTGGRERPALLADVFEAFIGALYLDQGLETVWGFLKEIVYPKINEGAFSHVMDYKSQLQELIQRDGSGNIEYQILQEKGPAHNREFVSRVTLNNVALGLGSGKSKKEAEQQAAAEALKKLKEQL | soluble
2 | TEERLKEIEAKYDEIAKDWPKKVKHVLHEEHELELTRVQVYTCDKCEEEGTIWSYHCDECDFDLHAKCALNEDTKE | soluble
3 | MTSSDQSPSHDVFVYGSFQEPAVVNLILECAPVMVSAQLHGYHLYRLKGRLHPCISPSDNGLINGKILTGLTDSQLESLDMIEGTEYVRKTVEVVLTDTLEKKQVETIVWANKDDPNMYGEWDFEEWKRLHMEKFIEAATKFMEWKKNPNGRSREEFEKFVQDDSSPASA | soluble
4 | MSLDYEIFNPYEGLIFDMDGTLIDTMPVHAQAWTMVGKKFGYEFDFQIMYNFGGATVRTIAGEMMKAANMPLDRIEDVLAAKRELSYQLIPTQSKLLPTFEIVKSFHQKKPIALGSGSHRKIIDMLMDKLAIAPYFNAIVSADDVKEHKPHPETFLRCAELIQANPSRCIVFEDADLGVQAGLSAGMDVFDVRTREIISPREGHHHHHH | soluble
5 | MSLRKIKIKEIVCIIGLLGTLTAHSQNTVWQIGNKDKSAKEFKFYKNDYRNYINDVYLYEVGRNHSADFPYFLPGPSDAWAGGISGQAVIGFSLAEAPSPTTQIQLRLLFAETHPSSPPRLEVRLNSFEKSIQTPKGTNPEYLDTKETTSKELSVTLDIPADEFRAGNNTLTIRNISGSWVAFDQIKLTSDSPLQTNNLTTKASLVSSAFSPVLVVGKKKELRQPVKIKAVNWHHKKRPVELQVGNFPPERYVLSPGINNIETSIPEVTAPCELPIILKEQGKTVSKINEKATPVKKWTVYLVQHTHTDIGYTKPQTEILSEHLRYIDYAIEYCEQTKDYTNDAKFRWTCESAWAVDEYLKNRPEEQVNKLKKYIAEGQIEVASMYFNMSEIVDENSFKTFLQPVKEFRKHGIPSALAMQNDVNGIAWCLADYLPDLGIKYLWMGEHHYKSQVPFNMPTVFQWESPSGKPILTYRADHYNTGNFWGIEQGDIQKTEPKLLHYLSELERKHYPFDAVGVQYSGYFTDNSPPSIIECKLIREWNEKYAYPKLRSATASEFMDYVTERYGDKIPAYRAAYPDWWTDGFGSAARETAASRKTHSDMTAVEGLLSMAVLKDKCLPQATHQQIEHIHESLLFYDEHTFGASESVSDPLCENSQVQWGEKSAYAWEAVKRTQMLYETSVGLLQGDLRRGKNPTLTIFNTLNWKRSEMLTVYIDFEVIPRNQFFEITDFQGHSLKVQPIRYRREGCYYAIFAEDIPPMGYKTFEIVFKQPSTDTGTITINNASIENHFYKLQLNPDKGTIQSLYDKELNCELVDSSSPWELGAFIYEKLGNRDQLAQYRLDDYNRTGLSECRIIDSSNGPIYQRILLQGKSPGTDEAFGVNLEIKLYHDTKRIELEYAIKRLPETDPSGIYVAFPFQLPEGKLAFDVQGGTVISGKNQLEGTSTDWNTVQNFVSVQNEGHHHHHH | not soluble
6 | IRNVGITFETRPDWAREEHVDEFLRLGGTKVEIGVQSVYDFVLSRMQRGHGVAEIVRANRVLRDSAFKVGFHMMPHLPGADSELDLRGFKKLFDDQRFRPDYLKIYPTLVTEGTPLYRMWKSGEYQALSDEEAAELVADIKAVLPKWVRLQRIQRDIPAHQIFAGVR | not soluble
7 | MGSDKIHHHHHHMAETAPAPYFSEIARGPDQVEAHWLTTQDGQRIRAGLWRSHGPSAGTILLFPGRTEYIEKYGPLAIDLTDRGFDVLTVDWRGQGLADRSLSDGRLGHVAEFGAFQLDVAALVAHAEALNLPRPWYLLGHSMGGAIGLRALHEGLPVAACAFTAPMWAIRIPFALRPAARLLARFGTALGVSEKLVPTTTIEQYVQVTPFEGNTLTNDPEMYAFLQMQMTQHPELALGGPTVQWLSQAMLECADLRARPSPDVPCVTFLGENEQIVATEAIHDRMARWPSGKLEMIPDAQHEILMEIPQTRRQTCAILTAHFKKHV | not soluble
8 | GSPLPWCPHLVAVCPIPAAGLDVTQPCGDCGTIQENWVCLSCYQVYCGRYINGHMLQHHGNSGHPLVLSYIDLSAWCYYCQAYVHHQALLDVKNIAHQNKFGEDMPHPH | soluble
9 | MSQANLSETLFKPRFKHPETSTLVRRFSAGKPQAMQSALSGNHVDHWYRLINRLMWIWRGVTPQEILDVQARIVMSEAERTDPELFDTVIGYRGGNWIFEWAKEAMQWQQKAGQEADPLLSGRHWLHASNLYSIAAYPHIKGDELAEQAQALANRAYEEAAQRLPGSLRELEFTIPGGSPITGFLHMPKGEGPFPTVLMCGGLDSLQTDYYNLYENYFSPLGIAMLTIDMPSIGFSSKWTLNQDTSLLHQHALRHLENVPWIDHTRVAAFGFRFGANIAVRLGYLEPQRLKAVACLGPVVHGLLVDPLHQGRVPEMYLDVLASRLGMHDASDEALRVELNRYSLKTQGLLGRRCPTPMLSGFWKDDPFSPEEESRLITSSSADGKLLEIPFNPVYRNFDHALRQIARWINHRFG | not soluble
10 | MSLQTRPILVVGATGKTGSRVAAKLEAKGAAVRRGSRHAEIPFDWESPATWAPALSGVSRAYVTYFPDLAFPGAVEKLEAFTKVAAASGLDQIVLLSGRGEHHARLGEKVVETSGIPFTIVRAAWFAQNFSEGYLRDPVVAGVLPMPGGDIAEPIIDIDDIADVVVAALSEDGHAGQLYEVTGPRLMTFAEMAKVLSTATGRPIRHLPISFEDFHANVAAAGGEFVADVFTAIARETLDGRNAYVSDGVERALGRKPRDFAAFAAAAASQGLWTAAEGHHHHHH | soluble
11 | QRKNNNKRWYFTREQLENSPSRRFGLDPDKELSYRQQAANLLQDMGQRLNVSQLTINTAIVYMHRFYMIQSFTRFHRNSVAPAALFLAAKVEEQPKKLEHVIKVAHTCLHPQESLPDTRSEAYLQQVQDLVILESIILQTLGFELTIDHPHTHVVKCTQLVRASKDLAQTSYFMATNSLHLTTFSLQYTPPVVACVCIHLACKWSNWEIPVSTDGKHWWEYVDATVTLELLDELTHEFLQILEKTPNRLKRIWNWRACQAAKKT | soluble
12 | MAGPSLVEVAAAVLIRPDDSFLLACRPDGKPYAGYWEFPGGKIETGESPLQALARELDEELGITVRQATPWLTRTFSYPHATVRLRFYRVTDWHGELTPRERQQFAWQTAENITVSPLLPANTPILRSLALPSIYAVTRTVETDIEASLLSIGQTLGNGVKLLQIRQKAMSHDQLEHFSRTALQLARSYQATVLINENIPLAQTLQADGVHLTAAQLRSLHSRPAVNWCGASCHNEQELQRAERLGVDFVTLSPVQPTLSHPGAAALGWKEFAALIRDYPLPVYALGGLLPADLETAREYGAHGIAMMRSILEHHHHHH | not soluble
13 | MGSDKIHHHHHHMIRLFEYDSKQAQSLSQVPVHQPSIIRVIHGEKSLLWQDESVLVGQGQLLLIPAGSHISFVNRPFLGRYRAVQLLLPHDLPQGILSSTADWRDPMPVQNVSRAVDLAWNALLQSLSLSLADSVQLHYLAALLLSLPDKRSVNWLYGHTQRSVTQAALALMSVSPSAPWQQEEIADKLHMSTASLRRKLVLEDTSFRQLLVEVRLSHGLAMLQNSGEPLLQVALACGYQSAEKFSLRFKQQFGLTPAAYRRTL | not soluble
14 | AWKGEVLANNEAGQVTSIIYNPGDVITIVAAGWASYGPTQKWGPQGDREHPDQGLICHDAFCGALVMKIGNSGTIPVNTGLFRWVAPNNVQGAITLIYNDVPGTYGNNSGSFSVNIGKDQS | soluble
15 | MGSSHHHHHHSSGLVPRGSHMLEDPMGTLIRATTLSRLSFIDVVNDNGFYQFEKPKEGRKYVATLDCSEGRGQDYHALQIIDITEFPYKQVAVYHSNTTSHFILPDIVFKYLMMYNECPVYIELNSTGVSIAKSLAMDLEYDNIICDSFIDLGMKQSKRSKAMGCSALKDLIEKDKLIINHKGTIQELRTFSEKGVSWAAEEGFHDDLVMSLVIFGWLTTQEKFAEYAGKDE | soluble

Reference: the DeepSol protein solubility set
